This is an account of results in patent EP3689907A1 (Numab Therapeutics AG, dated 2020).

For orientation: Kd means the free concentration of one partner at which half of the binding sites on the other are occupied at equilibrium, for simple one-to-one binding. What is called koff is the rate constant with which the complex falls apart. As usually defined, the kon is a measure of how fast the partners come together.

One assay has as its target T1, cynomolgus monkey IL-17A (cynomolgus monkey (Macaca fascicularis)).
T1 chain: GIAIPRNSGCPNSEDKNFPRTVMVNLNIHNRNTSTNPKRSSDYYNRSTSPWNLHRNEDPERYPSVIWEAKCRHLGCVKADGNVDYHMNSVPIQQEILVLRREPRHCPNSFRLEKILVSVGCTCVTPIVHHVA
Nature of the assay: SPR (Biacore T200), cynomolgus IL-17A (Trenzyme), scFv as analyte.

The next assay deals with T2, human IL-17F (human, UniProt Q96PD4 31-163).
T2 construct: Peprotech Cat. No. 200-25 in the direct ELISA
T2 sequence: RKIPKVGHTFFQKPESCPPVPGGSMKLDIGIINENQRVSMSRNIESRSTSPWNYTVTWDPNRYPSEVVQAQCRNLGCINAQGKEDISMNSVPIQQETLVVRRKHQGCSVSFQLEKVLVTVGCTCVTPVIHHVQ
Nature of the assay: competition ELISA: coated scFv, biotinylated IL-17A, unlabeled cytokine as competitor. On the technique in general: An ELISA detects its analyte on a solid surface through an enzyme-linked reagent.

In a further assay the target is T3, human IL-17D (human, UniProt Q8TAD2 16-202, limits assumed).
T3 sequence: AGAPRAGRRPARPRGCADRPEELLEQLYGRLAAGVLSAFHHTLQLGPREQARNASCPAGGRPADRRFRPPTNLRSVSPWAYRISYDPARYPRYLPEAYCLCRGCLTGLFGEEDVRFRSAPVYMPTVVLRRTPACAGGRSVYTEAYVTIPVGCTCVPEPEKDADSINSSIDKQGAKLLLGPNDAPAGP
The description is as above.

A further assay addresses T4, human IL-17B (human, UniProt Q9UHF5 21-180).
T4 sequence: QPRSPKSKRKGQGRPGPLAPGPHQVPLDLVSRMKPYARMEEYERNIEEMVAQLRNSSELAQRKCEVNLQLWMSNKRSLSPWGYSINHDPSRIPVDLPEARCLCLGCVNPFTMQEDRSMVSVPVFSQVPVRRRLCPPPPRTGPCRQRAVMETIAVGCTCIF
The description is as above.

The target in a further assay is T5, human IL-17E (human, UniProt Q9H293 33-177).
T5 construct: also called IL-25
T5 sequence: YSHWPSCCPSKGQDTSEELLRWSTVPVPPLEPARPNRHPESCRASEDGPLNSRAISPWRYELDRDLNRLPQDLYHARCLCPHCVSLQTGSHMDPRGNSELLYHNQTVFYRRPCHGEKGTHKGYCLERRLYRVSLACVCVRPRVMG
The assay is described as above.

For a further assay, the target named is T6, human IL-17C (human, UniProt Q9P0M4 19-197).
T6 sequence: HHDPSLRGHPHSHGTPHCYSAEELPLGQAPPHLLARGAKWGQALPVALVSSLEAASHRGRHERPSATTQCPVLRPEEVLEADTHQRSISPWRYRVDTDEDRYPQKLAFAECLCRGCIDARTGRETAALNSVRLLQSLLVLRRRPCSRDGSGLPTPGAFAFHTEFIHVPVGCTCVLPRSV
The assay is described as above.

B1: PRO571 (scFv)
scFv: DIQMTQSPSSLSASVGDRVTITCQASESIYRYLSWYQQKPGKAPKLLIYLASTLTSGVPSRFSGSGSGTDFTLTISSLQPEDFATYYCQSNFGTASTTYYNTFGGGTKLTVLGGGGGSGGGGSGGGGSGGGGSEVQLVESGGGLVQPGGSLRLSCAASGFSFSGFYYMCWVRQAPGKGLEWIGCIDTGDGTTYYASWAKGRFTISRDNSKNTVYLQMNSLRAEDTAVYYCARDAAYGGYAYPAHGMDLWGQGTLVTVSS
notes: also called 27-31-C04-sc01; 27_31_C04_sc01
The molecule B1 yielded an equilibrium dissociation constant (Kd) with cynomolgus monkey IL-17A of 0.0331 nM. In the assay with cynomolgus monkey IL-17A, this molecule came in with a koff of 3.88e-05 s⁻¹. In the assay with cynomolgus monkey IL-17A, the kon turned out to be 1.17e+06 M⁻¹ s⁻¹. Further, the binding result in the assay with human IL-17F, with human IL-17D, with human IL-17B, with human IL-17E and with human IL-17C was “no binding” each time.

B2: PRO592 (scFv)
scFv: DIQMTQSPSSLSASVGDRVTITCQASESIYRYLSWYQQKPGKAPKLLIYLASTLTSGVPSRFSGSGSGTDFTLTISSLQPEDFATYYCQSNFGTASTTYYNTFGGGTKLTVLGGGGGSGGGGSGGGGSGGGGSEVQLVESGGGLVQPGGSLTLSCAASGFSFSGFYYMCWVRQAPGKGLEWIGCIDTGDGTTYYASWAKGRFTISRDNSKNTVYLQMNSLRAEDTAVYYCARDAAYGGYAYPAHGMDLWGPGTLVTVSS
notes: also called 27-31-C04-sc02; 27_31_C04_sc02
Turning to B2, the dissociation constant Kd in the assay with cynomolgus monkey IL-17A came to 0.16 nM. In the assay with cynomolgus monkey IL-17A, this molecule registered a koff of 5.38e-05 s⁻¹. In addition, the kon with cynomolgus monkey IL-17A came to 336000 M⁻¹ s⁻¹. In addition, the binding result with human IL-17F, with human IL-17D, in the assay with human IL-17B, in the assay with human IL-17E and with human IL-17C was “no binding” each time.
